Assay results reported in the NTF2 design screens of Basanta et al. (2020).

Assay: protease stability score; higher = more stable; yeast display proteolysis, trypsin and chymotrypsin;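 note: log10 excess protease needed over predicted unfolded state with 0 meaning unfolded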

With “DEKKLEEVAKKVMDAMRKGDSETLVKLGKPDVTFKVADIEFKGQDQLRKYYKLDQDVGVELHLKEEKKEGNKFTMVYDARFGGTQDTVEVEVEVKDEKVDKARAKFTEEYAKHIQKG” the protease stability score was 0.586.

“DEKKLHELLLKMVQYYVSGHTEKVKEMGKDDVNLNAGDYTYHGVEQVATVADRMRQYGVKLEVKNRRQEGDRLEVEVEFHVGGQTVTVTFKVKADGGKVDEMRIDFSEEADKMARKG” gave a protease stability score of -0.157.

“DEKKLKDKAETLVENFKTGNEEEFSRMADENATLVVGDKTLRGREDLQTFISEFKKTVDHVEVRHVTADNGRVTIDMVVDINGRRVRVHVVIKFKNGHIKDVRVDPRMKRAMDQ” gave a protease stability score of 0.905.

Sequence “DEKKLKELAEELVKADRTGNPDMIKKLGKPDVEFHVANVTMHGSEQVYKYYEKVQRQGNEVHIKRQEVRGDHVEVHYTVKVGGTEVEVTMRLHAKDHKVDKAEAHFNKEYLDHVKKG” has a protease stability score of 0.413.

“DEKKLLDLARVALEYLQRGNSDQFAKMLDEGGQMNVGDTQINGSDQVKKYVKKFKDQGVHVEYKEQEEKGDTVTVKTEAELGDAKVTFEVHYVAKGDRVERVEVRMNKEQITEFKKS” gave a protease stability score of 0.272.

Sequence “DEKKLLEIAKEVADYVRNGNADQVAKLGKEGIQANFGDEQVNGPDQMREYVKKVKDLGLHAEYKEEKYEGDTVELHTQAHLGDVTADFTVTYIVKGDKLDKVEVRFNKEQMKKFKTS” has a protease stability score of 0.007.

“DEKKLQELLKKAFEAALNGDEDKLRKLLAPNVKYKYGDTEREGEDAVRLVMQIVKHIGVEVKKQEEEVKGGRMRAVFRYDNGSQTVQTTAEVQYEGDKVKEVRVEITDEIKKVMQRG” showed a protease stability score of 1.17.

For “DEKKQAEDFFDTWVEIVKSGDEEKAQQMADPNVRFQIGDKSWRGREDFKKFLKTQLKRADHIRFEVQRITVRPNHIEVQFRIVIDNNGQDSRDTLTFVIKVNGDRLRLVEMHEG”, the protease stability score was 1.43.

“DEKKQAKRLHETMDRILTQGNPHEAKHLFDKDARIDVGDKKVHGREQIAKSLAERVRQVDHIHNQVDHVEVDNGQLNMTVRFQQETNGKTHDYSAQHRVDIDGDKVKVVKVTHQ” showed a protease stability score of -0.336.

Work on “DEKKQQELAETFWKIFKTGDEEKLKQMMPQDVRARYGDKSVTGRDRIVTTIKKRVKRADHINVKHISVHNGKIHIDAVIVVDGRKQRDTINIKMRNGHIKNINVDPEKDKQNFS” yielded a protease stability score of -0.217.

Sequence “DEKKTKELLKEAMKALHNGNEEKVKKLGGPDVEVHAFNYRNRGPEAMVEMARLAQRVGTEFQYREERFEGNRVKTVVEVTVGGDTVRYEVQATVEGGEVKRWEAHVDEKFIEHVEKS” has a protease stability score of 0.174.

“DEKKVEKVVREALKAMINGDKDKVRKLLKPDVQFHAGDVEMHGVDQVVKYYEKIKRQGVEMHIKEVKVTGNEAEVKYDLRADGTEATVKAKVVVENEKVDHVTAELTKTYDDLVKKS” showed a protease stability score of -0.107.

Sequence “DEKKVEQAEQWIRNLQTGDPDKANDMFDPNAEITVGDHVVHGREEFKDRMEKDMRNMRIKFEDVHASVKNGRVTVSVDQVDTNNGKPKRYRYNLTIDLRNGKVTEIVNKEDK” has a protease stability score of 0.066.

“DEKKVHEVLKKLRKALEQGNVDEMVKMGKPDVEFHFFDTKIEGLDQLHEYYKTMKDHGAELHVEETKVEGNKVEVVYVLKLGGTQVKVTAQIEIKDERVVRARAENTEEYKKRVKKG” gave a protease stability score of 0.359.

With “DEKKVKEIAKKAFEYAVKGNEEQLQKLVKPNVDYEYVDEKYEGEDVVKKMVRLLKKVGAEVKIKRYEVKGDTVKADFDYNKGDKTVRTTAEVVYNGDKITQARLELTDEVKKIMHQG” the protease stability score was 0.681.

“DEKKVKELIDQVVEAIQKGDVEHLLKLGKPDVTFTVGDVEIRGLEHLKKYYKQVKDDGAELHVKKVEVKGNTAQVHYDMKYGGTKATVTVNIEAKDHKVDRAEAKMDKDYLKYVRDG” gave a protease stability score of 0.644.

Sequence “DEKKVKELLVRAVQAYVNGNTEEVKKLLKEDVQLHAVNHTYHGVEQLLKVVKRMKEYGIKLQVTDHKVDGDKVDVKVQFHAAGETKEVTFRVQADGGKVDKVEVHVTEEVQKLAEKG” has a protease stability score of 1.05.

With “DEKKVKELVDTLFDVMRKGDAERFRRYLKPDVRFEFGDITMQGPDQMEKYYRQDQKYGNEMHIKHKEVHGDRAKVTYDVEIKGTRATVEAEVHVRDEKVDEAKAEFDEDYKKYFTKG” the protease stability score was -0.121.

With “DEKKVKEMVTEAQKAIENNDSDTMAKFLKPDVEFHFGDVKLKGPEDVKKYYDKVRRVGMEAHVKEAEVKGDTAQVVYDVEVKGKRVTITARVQMKDERVDRAEVELDEDYAREVTEG” the protease stability score was -0.02.
